For four substances, µg trypsin inhibited by 1 mg sample (BAPNA trypsin inhibition assay) (µg trypsin inhibited by 1 mg sample) and µg trypsin inhibited (BAPNA trypsin inhibition assay, casein results are on record in US20220362303A1.

The assay concerns the target trypsin (T9253, Merck Life Sciences) (UniProt P00760). The assay is described as follows: cell-based or functional assay.
T9253 sequence (P00760 24-246): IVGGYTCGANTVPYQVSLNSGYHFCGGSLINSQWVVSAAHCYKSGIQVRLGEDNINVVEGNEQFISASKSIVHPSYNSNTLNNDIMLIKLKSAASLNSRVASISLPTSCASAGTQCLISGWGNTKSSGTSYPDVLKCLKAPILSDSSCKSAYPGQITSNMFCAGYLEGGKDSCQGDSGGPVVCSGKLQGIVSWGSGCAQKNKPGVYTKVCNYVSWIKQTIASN

Substance “Human EGF (Peprotech, New Jersey, USA) (from UniProt P01133 971-1023) (ligand)” registered a µg trypsin inhibited by 1 mg sample (BAPNA trypsin inhibition assay) (µg trypsin inhibited by 1 mg sample) of 1.43.
“Ovomucoid (Sigma, USA) (from UniProt P01005 25-210)” gave a µg trypsin inhibited by 1 mg sample (BAPNA trypsin inhibition assay) (µg trypsin inhibited by 1 mg sample) of 703.
In the case of calcium caseinate (C16), the µg trypsin inhibited (BAPNA trypsin inhibition assay, casein at 0.1 mg/ml) (µg trypsin inhibited) came out at 0.34 and the µg trypsin inhibited by 1 mg sample (BAPNA trypsin inhibition assay) (µg trypsin inhibited by 1 mg sample) is 3.24.
In turn, “soya bean trypsin inhibitor (SBTI, Roche, Calif., USA) (from UniProt P01070 25-205)” registered a µg trypsin inhibited by 1 mg sample (BAPNA trypsin inhibition assay) (µg trypsin inhibited by 1 mg sample) of 838.
